Test results taken from the supplement of paper PMC9170038.

Experiments:
MS2 coat protein [1] = test: apparent KD of MS2 coat protein, switch ON state; designed switch direction (-1 OFF switch, 1 ON switch): -1; higher = weaker reporter binding; details: FMN input: 0 or 200 uM; Eterna round: R93 (includes R88 designs)
In short: (§1)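 The buffer was 100 mM Tris-HCl pH 7.5 with 80 mM KCl and 4 mM MgCl2, used without or with constant ligand. In it, RNA switches transcribed on-chip from Illumina sequencing clusters were titrated with SNAP-549-labelled MS2 coat protein in twofold steps from 0.7 or 1.5 nM to 3 µM. Apparent KD for each design is the median of its normalised cluster binding-curve fits.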

MS2 coat protein [2] = test: apparent KD of MS2 coat protein, switch OFF state (with FMN for OFF switches, without FMN for ON switches); designed switch direction (-1 OFF switch, 1 ON switch): -1; higher = weaker reporter binding; details: FMN input: 0 or 200 uM; Eterna round: R93 (includes R88 designs)
In short: as §1

Sequence | apparent KD of MS2 coat protein (MS2 coat protein [1]) | apparent KD of MS2 coat protein (MS2 coat protein [2])
AAAACACAUGAGGAUCACCCAUGUGAGGAUAUGCUAUGGAAAUAAAAAAUAAAACAUAGCAGAAGGCACAAAAA [Mat - Exclusion 1 - Eli mod - D40] | 23.9 nM | 39 nM
AAAACGGCAGGAUAUACGAUUGGGAACUAGACCGAGGAACCACAUGAGGAUCACCCAUGUAGAAGGGCCAAAAA [Ex2 Malc#15] | 24.2 nM | 96.1 nM
AAAACGUGAGGAUAUACUAAAAUAAAAAAUUAUGUUAAAAAACAUGAGGAUCACCCAUGUAGAAGGCACAAAAA [AJ 3] | 29.8 nM | 28.6 nM
AAAACGUGAGGAUAUGCACCAAAAAAAAAAAAACGGGUACGACAUGAGGAUCACCCAUGUAGAAGGCACGAAAA [Frodo Flailing 7 - Jieux - Exclusion 2] | 56 nM | 39.4 nM
AAAACUGGAGGAUAUACGUACAUGUCGAAAGACGUGAAGGGACAUGAGGAUCACCCAUGUAGAAGGCUAGAAAA [Mat - Exclusion 2 - JL mod - D71] | 53.1 nM | 87.6 nM
AAAAGACAUGAGGAUCACCCAUGUUAGGAUAUCGUGCAGAAAAAAAAAAAAAACUGCACGAGAAGGAACAAGGA [Seclusion] | 30.5 nM | 51.9 nM
AAAAGUAGAGGAUAUACAUGAGGAUCACCCAUGUAGAAAGGAAGUGUAUAUAUGGCAUGUAGAAGGCUACAUGA [Banishment 8 - Jieux - Exclusion 3] | 27.4 nM | 34.2 nM
AAAAGUGGAGGAUAUACAUGAGGAUCACCCAUGUGUAAAAAUAAAAACACAAAAGAAAGUAGAAGGCCACAAAG [Mat - Exclusion 3 - Mayanna mod - D115] | 19.4 nM | 55.2 nM
AAAAUGUCAGGAUAUGCGAAGGCGUCUGAUAGAAGAGGAUAGCAGAAGGGACAUGAGGAUCACCCAUGUGGAAA [Opal 25] | 72.3 nM | 124 nM
AAAAUGUCAGGAUAUGCGAAGGCGUCUGAUAGACGAGGCUAGCAGAAGGGACAUGAGGAUCACCCAUGUAAAAA [Power strip] | 82.2 nM | 179 nM
AAAAUGUCAGGAUAUGUAGCAAAAAGUGAUCCAAAAAAGCUACAGAAGGGACAUGAGGAUCACCCAUGUAAAAA [Ex4: 932] | 244 nM | 406 nM
AAACAUGGAGGAUAUACAUGAGGAUCACCCAUGUGUAUAAAAAAAUAUACAAAAGAAUGUAGAAGGCCAUGAAA [Ex 3 Snow] | 36.1 nM | 54.2 nM
AAACAUGGAGGAUAUACAUGAGGAUCACCCAUGUGUAUGAAAAAAUAUACAAAAGAAUGUAGAAGGCCAUGAAA [Mat - Exclusion 3 - Mayanna mod - D102] | 26.9 nM | 47.8 nM
AAACGUAGAGGAUAUACGAAAAGAUUACGAAAGUAAUCGGGACAUGAGGAUCACCCAUGUAGAAGGCUACGAAA [Mod2 of Meechl 64% 3] | 27.1 nM | 61 nM
AAAGAACAUGAGGAUCACCCAUGUGAGGAUAUACGAGCGUGAGAAAGAUAAAACGAGCGUAGAAGGCACAAGAA [JR_Exclusion1_Sub4] | 43.4 nM | 49.3 nM
AAAGCACGAGGAUAUACAUGAGGAUCACCCAUGUAUAAAAAAAAAAAAAAAUCCUCAUGUAGAAGGCGUGCAAA | 17.4 nM | 9.78 nM
AAAGGACAAGGAUAUACAUGAGGAUCACCCAUGUAAAAAACAUAAUAAAAUAACUUAUGUAGAAGGUGUCCAAA [Mat - Exclusion 3 - Eli mod - D99] | 23.1 nM | 57.1 nM
AAAGGACGAGGAUAUACAUGAGGAUCACCCAUGUAAAAAACAUAAAAAAAGAAAUUAUGUAGAAGGCGUCCAAA [69%, Moding Meechl, 4] | 18.1 nM | 17.8 nM
AAAGGACGAGGAUAUACAUGAGGAUCACCCAUGUAAAAAACAUAAUAAAAGAAUUUAUGUAGAAGGCGUCCAAA [69%, Moding Meechl, 1] | 18.1 nM | 17.1 nM
